Results: patent publication US7105166
One block for each substance: values may come before it.

Legend:
[1] = target: CD28Ig (human) [IgG part: P01857]; test: inhibition of 125I-B7Ig binding to immobilized CD28Ig
[2] = target: CD28 expressed on transfected cells (human) (UniProt P10747); test: inhibition of 125I-B7Ig binding to cell surface expressed CD28
[3] = target: B7 antigen (B7-1, CD80) expressed on cells (human) (UniProt P33681); test: cell-based or functional assay
B7Ig (human) = B7Ig (human) (UniProt P33681); test: solid phase competition of 125I-B7Ig binding to immobilized CTLA4Ig
CTLA4Ig (human) [4] = test: Scatchard analysis of competition data, 125I-B7Ig on immobilized CTLA4Ig
CTLA4Ig (human) [5] = test: 125I-B7Ig (4 nM) on plate-coated CTLA4Ig
CTLA4Ig (human) [6] = test: solid phase competition of 125I-B7Ig binding to immobilized CTLA4Ig

inhibition of ^125I-B7Ig binding [1]: > 90%
inhibition of ^125I-B7Ig binding [2]: > 90%
Substance: mAb 9.3 (antibody)

inhibition of Th-induced IgM production [3]: 65%
IC50 (B7Ig (human)): 0.022 µM
Substance: mAb BB-1 (antibody)

Kd (CTLA4Ig (human) [4]): 0.012 µM
radioactivity bound to wells treated without competitor (CTLA4Ig (human) [5]): 28300 cpm
IC50 (CTLA4Ig (human) [6]): 0.175 µM
Substance: B7Ig (from UniProt P33681 35-249; P01857 99-330) (Fc fusion)
